Results: article PMC10855774, “Role of Spexin in White Adipose Tissue Thermogenesis under Basal and Cold-Stimulated Conditions” (International Journal of Molecular Sciences, 2024)

Assays:
[1] = Daily caloric intake and body weight of SPX-treated mice at RT or cold; type: in vivo; conditions: for body weight change: C × S p < 0.05
Experimental: (§1) Normal adult male C57BL/6 mice (four months of age) were kept in a temperature-controlled environment (20–22 °C and a fixed 12 h light/12 h dark cycle; lights on at 07:00 h) and fed ad libitum with Purina commercial rat/mouse chow (Ganave, Buenos Aires, Argentina, L0723/1). Mice were injected with SPX or PBS (29 µg/kg/day, Tocris, Bristol, UK) for ten days (the SPX and CTR groups, respectively). On the third day of the protocol, each group was subdivided into two other groups: one exposed to cold (4 °C, CTR-C and SPX-C, n = 12 mice for each group) and another one housed at RT (CTR and SPX, n = 15 mice for each group) (Figure 1). Food intake and body weight were measured every day. On the experimental day (day 10), the mice were euthanized under non-fasting conditions (08:00 to 09:00 h), and their trunk blood was collected; plasma samples were then frozen (–80 °C) until the metabolite measurement. Inguinal AT (IAT, subcutaneous depot), epididymal AT (EAT, visceral depot), and brown AT (BAT, subcutaneous depot) were aseptically dissected and weighed. These depots were kept at –80 °C for further procedures. Animals were euthanized according to protocols for animal use, in agreement with the NIH guidelines for the care and use of experimental animals. All experiments were approved by our Institutional Animal Care Committee (Approval code: 6NE-2023).

[2] = tested on: ucp1; assay: UCP1 immunohistochemistry of EAT and IAT; type: in vivo, mice; conditions: SPX groups vs. CTR groups; representative of three experiments
Experimental: as §1, with “6NE-2023). […]” for “6NE-2023).”

[3] = tested on: spx; assay: spx mRNA expression in AT depots (qRT-PCR); type: in vivo, mice
Experimental: as §1
Total RNA was isolated from cells by the Trizol extraction method (Invitrogen, Life Technology, Waltham, MA, USA) and reverse-transcribed using random primers (250 ng) and RevertAid Reverse Transcriptase (200 U/µL, Thermo Scientific, Waltham, MA, USA). […] The expression levels were analyzed for β-actin (βactin, […] gene), Uncoupling Protein 1 (ucp1), proliferator-activated receptor gamma coactivator-1 alpha (pgc1α), cytochrome-c oxidase subunit 8b (cox8b), galanin receptors 2 and 3 (galr2 and galr3, respectively), and Spexin (spx). […] The relative changes in the expression level of each gene (ΔΔCt) were calculated by the ΔCt method.

[4] = Adipose tissue depot mass percentage; type: in vivo, mice; conditions: SPX 29 µg/kg/day ten days, cold (4 °C); SPX-C relative to CTR and CTR-C; C × S p < 0.05
Experimental: as §1

[5] = Plasma glucose and triglyceride levels (commercial kits); type: in vivo, mice; conditions: SPX 29 µg/kg/day ten days, RT or cold; non-fasting; n = 6–7
Experimental: as §1, with “Animals were euthanized according to protocols for animal use, in agreement with the NIH guidelines for the care and use of experimental animals. All experiments were approved by our Institutional Animal Care Committee (Approval code: 6NE-2023).” left out
Circulating glucose (Glu) and triglyceride (Tg) levels were measured using commercial kits (Wiener Lab., Rosario, Argentina). Plasma SPX was measured using a commercial ELISA kit (SPX: Phoenix pharmaceutical EK-023-81).

[6] = Liver Tg content; type: in vivo, mice; conditions: SPX 29 µg/kg/day ten days
Experimental: Liver tissue (50 mg) was homogenized in a 5% solution of 500 µL Triton X-100 in PBS. The homogenate was incubated at 80–100 °C for 5 min and centrifuged at 10,000× g for 10 min. The Tg levels were measured in the supernatants using a commercial kit (Wiener Lab., Rosario, Argentina).

[7] = tested on: mitochondrial DNA; assay: Mitochondrial DNA content quantification (qPCR); type: in vivo, mice
Experimental: as §1, with “Inguinal AT (IAT, subcutaneous depot), epididymal AT (EAT, visceral depot), and brown AT (BAT, subcutaneous depot) were aseptically dissected and weighed. These depots were kept at –80 °C for further procedures. Animals were euthanized according to protocols for animal use, in agreement with the NIH guidelines for the care and use of experimental animals. All experiments were approved by our Institutional Animal Care Committee (Approval code: 6NE-2023).” left out
Tissue from the EAT and IAT depots were homogenized with lysis buffer (40 mM EDTA, 50 mM NaCl, 100 mM Tris, 0.2% SDS) in PBS (2:1) and, for DNA fragmentation, samples were sonicated (38 kHz ± 10% for 5–10 s). […] Finally, the DNA was dissolved in TE buffer and quantified by Nanodrop at 260 nm. […] The relative changes in the DNA mitochondrial content were calculated by 2[2, −ΔΔCt] […]

[8] = tested on: ucp1; assay: ucp1 mRNA expression in AT depots (qRT-PCR); type: in vivo, mice
Experimental: as §1
Total RNA was isolated from cells by the Trizol extraction method (Invitrogen, Life Technology, Waltham, MA, USA) and reverse-transcribed using random primers (250 ng) and RevertAid Reverse Transcriptase (200 U/µL, Thermo Scientific, Waltham, MA, USA). The cDNA (2 μL) was amplified with HOT FIRE Pol EvaGreenqPCR Mix Plus (Solis BioDyne, Tartu, Estonia) containing 0.5 μM of each specific primer, using a Rotor-Gene Q (Qiagen, Hilden, Germany). PCR efficiency was near 1. The expression levels were analyzed for β-actin (βactin, […] gene), Uncoupling Protein 1 (ucp1), proliferator-activated receptor gamma coactivator-1 alpha (pgc1α), cytochrome-c oxidase subunit 8b (cox8b), galanin receptors 2 and 3 (galr2 and galr3, respectively), and Spexin (spx). The designed primers are shown in alphabetical order in Table 1. The relative changes in the expression level of each gene (ΔΔCt) were calculated by the ΔCt method.

[9] = cold-stimulated conditions (7 days 4 °C), SPX-C vs. CTR-C p < 0.0001

B1: Spexin (peptide, UniProt Q9BT56 27-116, looked up)
Spexin: APQRLLERRNWTPQAMLYLKGAQGRRFISDQSRRKDLSDRPLPERRSPNPQLLTIPEAATILLASLQKSPEDEEKNFDQTRFLEDSLLNW
modifications: Spexin
notes: novel adipokine, a peptide of 14 amino acids of the galanin family; purchased from Tocris
- correlation between initial body weight and body weight loss after SPX treatment ([1]; SPX and SPX-C mice, basal and cold-stimulated conditions, Pearson correlation, p < 0.01): significant positive correlation
- caloric intake ([1]; male C57BL/6 mice, SPX 29 µg/kg/day for ten days, RT or cold (4 °C) from day 3, vs. CTR, repeated measures ANOVA, n = 6–9): no differences were observed due to the SPX treatment
- body weight change ([1]; male C57BL/6 mice, SPX 29 µg/kg/day for ten days, basal conditions (RT), SPX vs. CTR): lost body weight vs. CTR ones
- body weight change ([1]; male C57BL/6 mice, SPX 29 µg/kg/day for ten days, cold (4 °C) from day 3, SPX-C vs. CTR-C): lost less weight than their CTR-C counterparts
- UCP1 expression by immunohistochemistry, EAT and IAT [2]: lower than in the CTR groups
- spx mRNA expression in EAT ([3]; RT and cold): No changes
- spx mRNA expression in BAT ([3]; RT and cold, Supplementary Figure S3): No changes
- spx mRNA expression in IAT ([3]; cold conditions, C × S p < 0.001): lower spx expression than CTR mice
- BAT mass percentage [4]: intermediate value
- plasma Tg levels [5]: did not change
- plasma glucose levels [5]: did not change
- liver Tg content, SPX-C vs. CTR-C ([6]; cold (4 °C), C × S p < 0.001, p < 0.001 vs. CTR-C): CTR-C mice had higher Tg levels than CTR (p < 0.01) and SPX-C (p < 0.001) mice
- liver Tg content, SPX-C vs. SPX ([6]; cold vs. RT): lower Tg levels than SPX mice
- mitDNA content in EAT ([7]; RT and cold): no changes
- mitDNA content in IAT ([7]; cold, SPX-C intermediate between CTR and CTR-C, C × S p < 0.01): partial inhibition, although no significant differences were found
- ucp1 mRNA expression in BAT ([8]; RT and cold, C p < 0.001, Supplementary Figure S2a): increased under cold exposure despite the SPX treatment
- ucp1 mRNA expression in IAT and EAT ([8]; RT, SPX vs. CTR): SPX inhibition was also significant, but only when a t-test was performed
- ucp1 mRNA expression in EAT [8, 9]: ucp1 inhibition
- ucp1 mRNA expression in IAT [8, 9]: ucp1 inhibition
